Here are results for 167 variants from the RNAGym collection of RNA variant scans (doi:10.7554/elife.80360).

The labels stand for the following.
B1: HDV Ribozyme (parent)
chain: GGCCGGCAUGGUCCCAGCCUCCUCGCUGGCGCCGGCUGGGCAACAUUCCGAGGGGACCGUCCCCUCGGUAAUGGCGAAUGGGACCCA

Variants of B1 are the subject of this data set. Nature of the data set: self-cleavage, relative activity (ratio to wild type); higher = more cleavage; co-transcriptional.
Regarding A16U G53A, the self-cleavage was determined as 1.01.

Take C49A G68A: the self-cleavage was determined as 0.742.

As to G52C, the self-cleavage was found to be 1.01.

As for A51U A71U, the self-cleavage amounted to 1.01.

For the variant C18A G34C, the self-cleavage was 0.136.

For the variant G35A G67A, the self-cleavage was determined as 0.328.

As to U47G A56G, the self-cleavage amounted to 1.08.

For the variant A45C G52A, the self-cleavage worked out at 0.684.

A51C G68U: the self-cleavage was 0.782.

As for C22G G34C, the self-cleavage was determined as 0.0811.

Consider C15G U46G, for which the self-cleavage is 0.755.

Consider C15G U46C, for which the self-cleavage is 0.256.

U46C G82C: the self-cleavage came to 0.243.

Consider G50U C85G, for which the self-cleavage amounted to 0.872.

As to G17U G25U, the self-cleavage worked out at 0.185.

For G6U A43G, the self-cleavage came to 0.0665.

Regarding G2A C66G, the self-cleavage amounted to 0.213.

With C4U U37G, the self-cleavage came out at 0.

In the case of C3A C62U, the self-cleavage worked out at 0.57.

With G1U A45G, the self-cleavage amounted to 0.291.

As for U12G U69G, the self-cleavage was 0.831.

With G6C C13A, the self-cleavage worked out at 0.

Take C7A U23C: the self-cleavage came out at 0.935.

Take G10U C18U: the self-cleavage is 0.12.

For G35U A71U, the self-cleavage was determined as 0.178.

Take C13A C62U: the self-cleavage came out at 0.214.

Consider U72C U79A, for which the self-cleavage was found to be 0.369.

Consider C13G U47G, for which the self-cleavage was 0.151.

On to U12G C26A, for which the self-cleavage came out at 0.748.

With C57G A71U, the self-cleavage amounted to 0.91.

As for A8C C32A, the self-cleavage was determined as 0.119.

With C21U C58A, the self-cleavage is 0.136.

Turning to C63U C64G, the self-cleavage came out at 0.809.

For C13U U72C, the self-cleavage turned out to be 0.252.

In the case of G50A U65G, the self-cleavage came to 0.95.

For the variant C64A A87C, the self-cleavage was found to be 0.779.

As for A71U C75U, the self-cleavage worked out at 0.218.

For G31C G54U, the self-cleavage came to 0.332.

G6U G81A: the self-cleavage is 0.0997.

Take C26G U69G: the self-cleavage worked out at 0.787.

As for G2A C22A, the self-cleavage stood at 0.0205.

As for C13G C22U, the self-cleavage turned out to be 0.

Take G52C G59A: the self-cleavage was determined as 1.02.

Turning to A71G G73A, the self-cleavage turned out to be 0.689.

As for C4A G35A, the self-cleavage was 0.0733.

In the case of G6U C22U, the self-cleavage was determined as 0.136.

C36A G53C: the self-cleavage is 0.0277.

In the case of A51U U65C, the self-cleavage came to 1.04.

G17C U69A: the self-cleavage is 0.453.

On to U47G A71C, for which the self-cleavage was determined as 0.959.

In the case of C24U C75G, the self-cleavage was determined as 0.119.

U65G U72C: the self-cleavage was 0.415.

As for C26U A43G, the self-cleavage amounted to 0.745.

On to C7A U12C, for which the self-cleavage was 0.172.

Take A42G C64U: the self-cleavage is 0.45.

As for C13A U23G, the self-cleavage was determined as 0.0923.

For U9G A56U, the self-cleavage stood at 1.01.

In the case of A8G A77U, the self-cleavage stood at 0.0978.

As to C36A G38U, the self-cleavage was 0.189.

In the case of G25A G52U, the self-cleavage is 0.169.

As for C41G U47G, the self-cleavage was found to be 0.598.

In the case of C57G G76A, the self-cleavage came out at 1.04.

For the variant C15G A45G, the self-cleavage turned out to be 0.665.

Consider G25A G34U, for which the self-cleavage was determined as 0.0702.

For the variant G1C G82U, the self-cleavage is 0.095.

As for C24U G54C, the self-cleavage was 0.748.

As for C57G A87G, the self-cleavage is 0.86.

Regarding U23G G38U, the self-cleavage worked out at 0.0583.

Regarding G2A C41G, the self-cleavage was 0.0645.

In the case of G5U C58A, the self-cleavage was determined as 0.277.

With U23G C36A, the self-cleavage came out at 0.203.

For A77G C84U, the self-cleavage came out at 0.631.

Consider C3G C7A, for which the self-cleavage came out at 0.0213.

Regarding C41G G80A, the self-cleavage was determined as 0.431.

Regarding C7G G28U, the self-cleavage came to 0.0875.

Regarding G31C U46C, the self-cleavage was determined as 0.178.

G11C C13G: the self-cleavage came out at 0.0437.

G53C G74C: the self-cleavage is 0.19.

Take G1U U20A: the self-cleavage stood at 0.289.

Regarding A70C C85U, the self-cleavage was 1.07.

Regarding G55C C57U, the self-cleavage was found to be 0.976.

Consider U37A U60C, for which the self-cleavage came to 0.192.

For G10C U12G, the self-cleavage stood at 0.

Consider C33A C61G, for which the self-cleavage amounted to 0.237.

For C63G C85G, the self-cleavage was 1.02.

Regarding C49A U72G, the self-cleavage came to 0.443.

On to G6U G54U, for which the self-cleavage was 0.643.

For G34A G53C, the self-cleavage was 0.215.

Consider U9A G28C, for which the self-cleavage was 0.

As to U47A C49G, the self-cleavage is 1.42.

As to G17U C44A, the self-cleavage was determined as 0.323.

Regarding C15A C24A, the self-cleavage was 0.378.

For the variant C24U G76A, the self-cleavage worked out at 0.59.

Take C7U G34U: the self-cleavage was 0.0923.

With G40U A71G, the self-cleavage was determined as 0.46.

On to G52C G67A, for which the self-cleavage is 0.62.

C41U G53U: the self-cleavage stood at 1.1.

Regarding C22G C36G, the self-cleavage came to 0.123.

A16C G38U: the self-cleavage was 0.287.

Take G25U C32A: the self-cleavage turned out to be 0.105.

Consider C32G C33A, for which the self-cleavage worked out at 0.0615.

As to G73A C84U, the self-cleavage came out at 0.665.

On to C4U A42G, for which the self-cleavage came out at 0.138.

On to G10U C14A, for which the self-cleavage stood at 0.

On to C15U C86A, for which the self-cleavage stood at 1.1.

As for G38C A43G, the self-cleavage is 0.219.

With C36G G40A, the self-cleavage was 0.157.

Regarding G10U, the self-cleavage was determined as 0.776.

U47A U60G: the self-cleavage worked out at 1.02.

A42G G68U: the self-cleavage worked out at 0.403.

Take C26G C84G: the self-cleavage stood at 0.615.

As to G29C C63U, the self-cleavage was 0.

Take G39C G81C: the self-cleavage was 0.089.

With A8C G81C, the self-cleavage amounted to 0.166.

Turning to G50C G80C, the self-cleavage was determined as 0.0906.

As for A42G C85A, the self-cleavage stood at 0.745.

On to G1U C26A, for which the self-cleavage was 0.288.

With C32A A87C, the self-cleavage amounted to 0.129.

Turning to U46C U72C, the self-cleavage amounted to 0.684.

With C21G A71G, the self-cleavage was 0.0594.

On to A71U A83G, for which the self-cleavage is 0.677.

For C24A A77G, the self-cleavage was determined as 0.256.

For the variant G10A G81U, the self-cleavage came out at 0.0468.

Take G1U C58A: the self-cleavage is 0.237.

On to C33U U72G, for which the self-cleavage came to 0.405.

As to A8G A83C, the self-cleavage was 0.262.

In the case of U23G G35C, the self-cleavage is 0.0639.

Regarding U12G G76U, the self-cleavage came out at 1.17.

Consider G59A U60C, for which the self-cleavage stood at 1.12.

Turning to C57G C66G, the self-cleavage came to 1.08.

In the case of C44U C49U, the self-cleavage was 0.96.

Take C44U C49G: the self-cleavage came out at 0.935.

For U79A, the self-cleavage was 0.808.

Regarding A43U A87C, the self-cleavage is 0.314.

For G17C C85G, the self-cleavage was found to be 0.185.

With G52A C75A, the self-cleavage stood at 0.166.

For the variant C24A C86G, the self-cleavage is 0.724.

On to C4A G34C, for which the self-cleavage was 0.261.

C3U G59C: the self-cleavage was determined as 0.688.

Consider G5A U46A, for which the self-cleavage is 0.

G25U A83U: the self-cleavage worked out at 0.0791.

As to G50U C62G, the self-cleavage was 0.344.

With G31U G82U, the self-cleavage came to 0.0378.

Consider C41U U65A, for which the self-cleavage was 0.92.

U46A C48U: the self-cleavage came out at 0.739.

In the case of A16C C58U, the self-cleavage turned out to be 1.05.

As to U20A A87G, the self-cleavage was 0.0831.

Regarding C49U G81C, the self-cleavage came out at 0.317.

Consider G10C C21A, for which the self-cleavage amounted to 0.0723.

G40C G68U: the self-cleavage is 0.245.

Turning to A16U A43G, the self-cleavage was determined as 0.453.

Take G29U C66G: the self-cleavage amounted to 0.0652.

Consider G17U G29C, for which the self-cleavage was found to be 0.0773.

On to C18G U46G, for which the self-cleavage came out at 0.0692.

For G31C G80A, the self-cleavage turned out to be 0.128.

For C58U A71U, the self-cleavage came to 1.16.

Regarding G40A U60C, the self-cleavage worked out at 1.11.

As for G25A U72C, the self-cleavage was determined as 0.227.

As to G59A A87G, the self-cleavage was determined as 1.04.

As to A42U G50U, the self-cleavage is 0.727.

With G1C C49U, the self-cleavage is 0.145.

Consider U23A G55C, for which the self-cleavage came out at 1.12.

In the case of G1C U12C, the self-cleavage was determined as 0.175.

For the variant G39C U72G, the self-cleavage amounted to 0.128.

U72C G82A: the self-cleavage came out at 0.248.

On to G29A G35C, for which the self-cleavage was 0.149.

On to U47A A70C, for which the self-cleavage came to 0.957.
